Results: patent US20230293638A1 (Eli Lilly, published 2023)
Numbered stars: 1 amine (or outer) side, 2 acyl side, 3 side chain; on linkers, the order of the positions; unused ones are H or OH. Square brackets hold non-standard residues; d marks the D form. Side chains are listed from the residue outwards. Ends that are not written are not given here. * marks the point of attachment. C20 diacid = O=C(O)CCCCCCCCCCCCCCCCCCC(=O)*; γGlu = O=C(O)[C@H](CCC(=O)[*:2])N[*:1]; AEEA = NCCOCCOCC(=O)O; Aib = CC(C)(N)C(=O)O

T1: human gastric inhibitory peptide receptor (human, UniProt P48546 22-466)
T1 sequence (looked up): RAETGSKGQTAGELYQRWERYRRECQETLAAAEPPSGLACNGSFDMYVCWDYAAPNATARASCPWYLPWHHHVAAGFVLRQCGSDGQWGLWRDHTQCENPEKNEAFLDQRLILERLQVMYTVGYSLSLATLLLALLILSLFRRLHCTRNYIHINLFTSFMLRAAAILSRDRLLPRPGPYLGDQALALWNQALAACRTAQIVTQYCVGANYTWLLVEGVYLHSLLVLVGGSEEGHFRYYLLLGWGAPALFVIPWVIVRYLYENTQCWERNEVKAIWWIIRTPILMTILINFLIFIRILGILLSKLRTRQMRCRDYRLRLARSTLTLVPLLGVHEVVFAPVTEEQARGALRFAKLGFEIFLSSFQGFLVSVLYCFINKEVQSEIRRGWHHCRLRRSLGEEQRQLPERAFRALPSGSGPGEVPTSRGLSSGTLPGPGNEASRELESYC


What was measured:
human GLP-1 receptor = human GLP-1 receptor (human, UniProt P43220 24-463); experiment: cell-based or functional assay
[1] = biological target: T1, human gastric inhibitory peptide …; experiment: cell-based or functional assay

Binder	hGLPIR cAMP EC50 ratio (human GLP-1 receptor)	hGIPR cAMP EC50 ratio [1]
YXEGTXTSDYSILLDKIAQXAFIEYLIKGG (Aib2; αMeF6; Aib20; K28((2-[2-(2-Amino-ethoxy)-ethoxy]-acetyl)2-(γGlu)-CO-(CH2)18-CO2H); C-terminal NH2) [Peptide 95]	0.0576	–
YXEGTXTSDXSIXLDXKAQXEFIXXLIEGG (Aib2; αMeF(2F)6; 4Pal10; αMeL13; Orn16; K17((2-[2-(2-Amino-ethoxy)-ethoxy]-acetyl)2-(γGlu)-CO-(CH2)16-CO2H); Aib20; D-Glu24; αMeY25; C-terminal NH2) [Peptide 265]	3.27	9.77
Y[Aib]EGTFTSDYSILLDKIAQ[Aib]AFIEYLIK([AEEA-AEEA-γGlu-C20 diacid])GG-NH2 (N-terminus assumed; SMILES CC[C@H](C)[C@H](NC(=O)[C@H](CCCCN)NC(=O)[C@H](CC(=O)O)NC(=O)[C@H](CC(C)C)NC(=O)[C@H](CC(C)C)NC(=O)[C@@H](NC(=O)[C@H](CO)NC(=O)[C@H](Cc1ccc(O)cc1)NC(=O)[C@H](CC(=O)O)NC(=O)[C@H](CO)NC(=O)[C@@H](NC(=O)[C@H](Cc1ccccc1)NC(=O)[C@@H](NC(=O)CNC(=O)[C@H](CCC(=O)O)NC(=O)C(C)(C)NC(=O)[C@@H](N)Cc1ccc(O)cc1)[C@@H](C)O)[C@@H](C)O)[C@@H](C)CC)C(=O)N[C@@H](C)C(=O)N[C@@H](CCC(N)=O)C(=O)NC(C)(C)C(=O)N[C@@H](C)C(=O)N[C@@H](Cc1ccccc1)C(=O)N[C@H](C(=O)N[C@@H](CCC(=O)O)C(=O)N[C@@H](Cc1ccc(O)cc1)C(=O)N[C@@H](CC(C)C)C(=O)N[C@H](C(=O)N[C@@H](CCCCNC(=O)COCCOCCNC(=O)COCCOCCNC(=O)CC[C@H](NC(=O)CCCCCCCCCCCCCCCCCCC(=O)O)C(=O)O)C(=O)NCC(=O)NCC(N)=O)[C@@H](C)CC)[C@@H](C)CC) [Peptide 73]	0.0225	–
YXEGTFTSDYXILLDKKAQXAFIEYLIEGGPSSGAPPPS (Aib2; D-Ser11; K17((2-[2-(2-Amino-ethoxy)-ethoxy]-acetyl)2-(γGlu)-CO-(CH2)18-CO2H); Aib20; C-terminal NH2) [Peptide 81]	0.063	–
YXEGTFTSDYSILLDKKAQXAFIXYLIEGGPSSGAPPPS (Aib2; K17((2-[2-(2-Amino-ethoxy)-ethoxy]-acetyl)2-(γGlu)-CO-(CH2)18-CO2H); Aib20; D-Glu24; C-terminal NH2) [Peptide 84]	0.173	–
YXXGTFTSDYSILLDKKAQXAFIEYLIEGGPSSGAPPPS (Aib2; Aad3; K17((2-[2-(2-Amino-ethoxy)-ethoxy]-acetyl)2-(γGlu)-CO-(CH2)18-CO2H); Aib20; C-terminal NH2) [Peptide 89]	0.175	–
YXEGTFTSDYSILLDKKAQXAFIEYLIXGGPSSGAPPPS (Aib2; K17((2-[2-(2-Amino-ethoxy)-ethoxy]-acetyl)2-(γGlu)-CO-(CH2)18-CO2H); Aib20; D-Glu28; C-terminal NH2) [Peptide 83]	0.166	–
YXEGTXTSDYSIXLDKKAQXAFIEYLIEGG (Aib2; αMeF6; αMeL13; K17((2-[2-(2-Amino-ethoxy)-ethoxy]-acetyl)2-(γGlu)-CO-(CH2)18-CO2H); Aib20; C-terminal NH2) [Peptide 99]	0.629	–
YXEGTXTSDYSIXLDEKAQXEFIEYLIEGG (Aib2; αMeF(2F)6; αMeL13; K17((2-[2-(2-Amino-ethoxy)-ethoxy]-acetyl)2-(γGlu)-CO-(CH2)16-CO2H); Aib20; C-terminal NH2) [Peptide 104]	1.85	–
YXEGTFTSDYSIXLDKIAQXAFIEYLIKGG (Aib2; αMeL13; Aib20; K28((2-[2-(2-Amino-ethoxy)-ethoxy]-acetyl)2-(γGlu)-CO-(CH2)18-CO2H); C-terminal NH2) [Peptide 97]	0.0268	–
YXEGTXTSDYSIXLDEKAQXEFIEYLIEGG (Aib2; αMeF(2F)6; αMeL13; K17((2-[2-(2-Amino-ethoxy)-ethoxy]-acetyl)2-(γGlu)-CO-(CH2)18-CO2H); Aib20; C-terminal NH2) [Peptide 103]	0.655	–
YXEGTXTSDYSILLDKKAQXAFIEYLIEGG (Aib2; αMeF6; K17((2-[2-(2-Amino-ethoxy)-ethoxy]-acetyl)2-(γGlu)-CO-(CH2)18-CO2H); Aib20; C-terminal NH2) [Peptide 98]	0.384	–
YXEGTXTSDXSIXLDXKAQXEFIXXLIEGGPSSGAPPPS (Aib2; αMeF(2F)6; 4Pal10; αMeL13; Orn16; K17((2-[2-(2-Amino-ethoxy)-ethoxy]-acetyl)2-(γGlu)-CO-(CH2)16-CO2H); Aib20; D-Glu24; αMeY25; C-terminal NH2) [Peptide 4]	1.41	–
